Assay results: US20250099534A1 (TECHNION RESEARCH AND DEVELOPMENT FOUNDATION, published 2025)
Starred links: 1 amine or outer side, 2 acyl side, 3 side chain; linkers in the order of their positions; H or OH if unused. Positions of bridges follow the written chain, without caps; N, C: chain ends. Primed or numbered codes have the meaning given here. No end group written: not given here. *: point of attachment. mClBz(3) = 3-(chloromethyl)benzoic acid, non-amino acid initiator forming a thioether with the C-terminal-region Cys, O=C(c1cccc(C[*:3])c1)[*:2]; mClBz(4) = 3-(chloromethyl)benzoic acid initiator, its benzyl thioether with a Cys side chain closes the ring, O=C(c1cccc(C[*:3])c1)[*:2]; mClBz = N-terminal group cyclised as a benzyl thioether to a Cys, O=C(c1cccc(C[*:3])c1)[*:2]; C10F9 = S-aryl group from decafluorobiphenyl, Fc1c(F)c(F)c(-c2c(F)c(F)c(*)c(F)c2F)c(F)c1F; C6F5 = pentafluorophenyl group on the Cys sulfur, Fc1c(F)c(F)c(*)c(F)c1F

How the values were obtained:
[1] = target: T1, biotinylated-Lys63 linked Di-Ub (UniProt P0CG47 1-76, isopeptide bond between the C-terminal Gly of the distal Ub and Lys63 of the proximal Ub; biotin tag at the N-terminus of the distal Ub); assay: SPR (BIACORE T100), biotinylated Lys63 Di-Ub on a CAPture chip
T1 construct: mature; Immobilised on streptavidin plates or on the SPR CAPture chip; also called K63-linked Di-Ub; biotin-Lys63 linked Di-Ub
Procedure: The binding of cyclic peptide 1 (CP1) against the target, Lys63 linked Di-Ub was determined using BIACORE T100 instrument (GE Healthcare) equipped with a biotin CAPture kit series S chip. 50 mM HEPES (pH=7.30, 150 mM NaCl, 0.05% Tween 20, 2.0 mM DTT, 0.2% DMSO) was used as buffer. Biotinylated-Lys63 linked Di-Ub was loaded on the SPR chip. By using various concentrations of peptide.

[2] = target: T1, biotinylated-Lys63 linked Di-Ub; assay: fluorescence-based competitive assay: unlabeled peptide, 5.0 molar equiv., pre-bound to biotinylated Lys63-linked Di-Ub on a streptavidin plate, then competed with CP1-FITC (1 equiv.); signal change relative to 1 (CP1), Y=[1-(a/b)]x100
Procedure: Streptavidin-coated microplate (96 well plate) was washed with HEPES buffer (50 Mm HEPES, 150 Mm NaCl, pH 7.30) and then in each well incubated 1 μg of biotinylated-Lys63-linked Di-Ub in 100 μl of the same buffer at RT. for 30 min. Additional wells were kept without biotinylated-Lys63-Di-Ub for blank subtraction. After the washing step, peptide standard (CP1) and unlabeled peptides were incubated (5.0 molar equivalent relative to biotin-Lys63-linked Di-Ub) at RT for 30 minutes for saturation binding to the target. Then 1 molar equivalent of FITC labeled peptide-standard (CP1-FITC) relative to biotinylated-Lys63-linked Di-Ub was incubated to compete with unlabeled peptides at RT for 30 min. After releasing bounded peptides on treatment with 6 M Guanidinium chloride (Gnd·HCl), the fluorescence values were measured (λex=480 nm and λem=525 nm). These values were normalized and then calculated the relative change in binding with the following formula:
Y=[1−(a/b)]×100 [0289] Where Y=Signal change relative to the standard (CP1) (in terms of %). [0290] a=Measured signal value of each peptide candidate (in Relative Fluorescence Units). [0291] b=Measured signal value of standard peptide (CP1). The dissociation constant (KD) of fluorescein-labeled peptide (CP1-FITC) was calculated in accordance with the literature procedure (Vamisetti G B et al., 2021).

[3] = target: T2, Lys48-linked Di-Ub (UniProt P0CG47 1-76, isopeptide bond between the C-terminal Gly of one Ub and Lys48 of the other); assay: fluorescence-based assay of relative binding on Lys48-linked Di-Ub, normalised to mJ08-L8W; the labelled competitor is not named [iv]
T2 construct: mature

[4] = target: T3, Lys48-linked Tetra-Ub (UniProt P0CG47 1-76, isopeptide bonds between the C-terminal Gly and Lys48 of successive Ub units); assay: fluorescence-based assay of relative binding on Lys48-linked Tetra-Ub, normalised to Ub4_ix; the labelled competitor is not named [panel headed '(iv) Binding of 1 and 2 against Lys48 Tetra-Ub as a target' (v) of the legend]
T3 construct: mature

| Kd [1] | binding result [2] | binding result [3] | binding result [4] | Binder |
| --- | --- | --- | --- | --- |
|  | binds |  |  | mClBz-C(C10F9)LIWIGSSKNPYILCG (thioether N-15) [cyclic peptide 21, CP1-L1C-C10F9] |
|  | binds |  |  | mClBz-C(C6F5)LIWIGSSKNPYILCG (thioether N-15) [cyclic peptide 20, CP1-L1C-C6F5] |
|  | binds | binds | binds | mClBz-CLIWIGSSKNPYILCG (bridge N-15; not fully specified (C-terminus, bridges), also called CP2) [cyclic peptide 2 (CP1-L1C)] |

The remaining lines, values behind:

| Binder | Kd [1] | binding result [2] | binding result [3] | binding result [4] |
| --- | --- | --- | --- | --- |
| {mClBz(4)}-LLIWIGSSKNPYILCG-NH2 (thioether N-15; SMILES CC[C@H](C)[C@@H]1NC(=O)[C@H](Cc2c[nH]c3ccccc23)NC(=O)[C@H]([C@@H](C)CC)NC(=O)[C@H](CC(C)C)NC(=O)[C@H](CC(C)C)NC(=O)c2cccc(c2)CSC[C@@H](C(=O)NCC(N)=O)NC(=O)[C@H](CC(C)C)NC(=O)[C@H]([C@@H](C)CC)NC(=O)[C@H](Cc2ccc(O)cc2)NC(=O)[C@@H]2CCCN2C(=O)[C@H](CC(N)=O)NC(=O)[C@H](CCCCN)NC(=O)[C@H](CO)NC(=O)[C@H](CO)NC(=O)CNC1=O, Found by RaPID selection, then made by Fmoc-SPPS; also called lead cyclic peptide 1) [cyclic peptide 1 (CP1)] | 16 nM |  |  |  |
| {mClBz(3)}-C(7‑methoxycoumarin‑4‑ylmethyl)LIWIGSSKNPYILCG (bridge N-15; not fully specified (C-terminus, bridges)) [cyclic peptide 19, CP1-L1C-CH2C10H7O3] |  | binds |  |  |
